Experimental findings from patent US10801046B2, “Methods and materials for biosynthesizing multifunctional, multivariate molecules via carbon chain modification” (INVISTA NORTH AMERICA S.A.R.L., priority 2016, dated 2020) are described below.

Assay type in all cases: biochemical
Test [1] in a line: Aminotransferase activity, N7-acetyl-1,7-diaminoheptane to N7-acetyl-7-aminoheptanal, L-alanine formation by RP-HPLC. The note with it: cell free extract, 10 mM substrate, 25° C., 4 h, against empty vector control, FIG. 51. As for the experimental part:
The activity of the N-terminal His-tagged aminotransferases of SEQ ID NOs: 116 (GenBank Accession No. AAQ59697.1), 119 (RefSeq Accession No. NP_417544.5), 125 (GenBank Accession No. AAGO8191.1), 126 (GenBank Accession No. AAY39893.1), 127 (GenBank Accession No. ABA81135.1), and 128 (GenBank Accession No. AEA39183.1) (see Example 6) for converting N7-acetyl-1,7-diaminoheptane to N7-acetyl-7-aminoheptanal was assayed using a buffer composed of a final concentration of 50 mM HEPES buffer (pH=7.5), 10 mM N7-acetyl-1,7-diaminoheptane, 10 mM pyruvate and 100 μM pyridoxyl 5′ phosphate. Each enzyme activity assay reaction was initiated by adding a cell free extract of the aminotransferases or the empty vector control to the assay buffer containing the N7-acetyl-1,7-diaminoheptane then incubated at 25° C. for 4 h, with shaking at 250 rpm. The formation of L-alanine was quantified via RP-HPLC.

A short description of test [2]: Aminotransferase activity, heptane-1,7-diamine to 7-aminoheptanal, L-alanine formation by RP-HPLC. To be noted: cell free extract, 10 mM substrate, 25° C., 4 h, against empty vector control, FIG. 50. As for the experimental part:
A sequence encoding an N-terminal His-tag was added to the Chromobacterium violaceum, Pseudomonas aeruginosa, Pseudomonas syringae, Rhodobacter sphaeroides, Escherichia coli, and Vibrio fluvialis genes encoding the aminotransferases of SEQ ID NOs: 116 (GenBank Accession No. AAQ59697.1), 119 (RefSeq Accession No. NP_417544.5), 125 (GenBank Accession No. AAGO8191.1), 126 (GenBank Accession No. AAY39893.1), 127 (GenBank Accession No. ABA81135.1), and 128 (GenBank Accession No. AEA39183.1), respectively such that N-terminal HIS tagged aminotransferases could be produced. The modified genes were cloned into a pET21a expression vector under the T7 promoter. Each expression vector was transformed into a BL21[DE3] E. coli host. Each resulting recombinant E. coli strain were cultivated at 37° C. in a 250 mL shake flask culture containing 50 mL LB media and antibiotic selection pressure, with shaking at 230 rpm. Each culture was induced overnight at 16° C. using 1 mM IPTG.
(§1) The pellet from each induced shake flask culture was harvested via centrifugation. Each pellet was resuspended and lysed via sonication. The cell debris was separated from the supernatant via centrifugation and the cell free extract was used immediately in enzyme activity assays.
Enzyme activity assays in the reverse direction (i.e., heptane-1,7-diamine to 7-aminoheptanal) were performed in a buffer composed of a final concentration of 50 mM HEPES buffer (pH=7.5), 10 mM heptane-1,7-diamine, 10 mM pyruvate, and 100 μM pyridoxyl 5′ phosphate. Each enzyme activity assay reaction was initiated by adding cell free extract of the aminotransferase gene product or the empty vector control to the assay buffer containing the heptane-1,7-diamine and then incubated at 25° C. for 4 h, with shaking at 250 rpm. The formation of L-alanine was quantified via RP-HPLC.

Test [3] is described as follows: Aminotransferase activity, 7-aminoheptanol to 7-oxoheptanol, L-alanine formation by RP-HPLC. The note with it: cell free extract, 10 mM substrate, 25° C., 4 h, against empty vector control, FIG. 52. As to the method: A nucleotide sequence encoding an N-terminal His-tag was added to the Chromobacterium violaceum, Pseudomonas syringae and Rhodobacter sphaeroides genes encoding the aminotransferases of SEQ ID NOs: 116 (GenBank Accession No. AAQ59697.1), 126 (GenBank Accession No. AAY39893.1), and 127 (GenBank Accession No. ABA81135.1), respectively such that N-terminal HIS tagged aminotransferases could be produced. The modified genes were cloned into a pET21a expression vector under the T7 promoter. Each expression vector was transformed into a BL21[DE3] E. coli host. Each resulting recombinant E. coli strain were cultivated at 37° C. in a 250 mL shake flask culture containing 50 mL LB media and antibiotic selection pressure, with shaking at 230 rpm. Each culture was induced overnight at 16° C. using 1 mM IPTG.
as §1
Enzyme activity assays in the reverse direction (i.e., 7-aminoheptanol to 7-oxoheptanol) were performed in a buffer composed of a final concentration of 50 mM HEPES buffer (pH=7.5), 10 mM 7-aminoheptanol, 10 mM pyruvate, and 100 μM pyridoxyl 5′ phosphate. […] The formation of L-alanine was quantified via RP-HPLC.

Test [4] is described as follows: Aminotransferase activity, forward direction (7-oxoheptanoate to 7-aminoheptanoate), pyruvate formation by RP-HPLC. To be noted: cell free extract, 10 mM substrate, 10 mM L-alanine, 25° C., 4 h, against empty vector control, FIG. 49. As for the experimental part: (§2) A sequence encoding an N-terminal His-tag was added to the genes from Chromobacterium violaceum, Pseudomonas syringae, Rhodobacter sphaeroides, and Vibrio Fluvialis encoding the aminotransferases of SEQ ID NOs: 116 (GenBank Accession No. AAQ59697.1), 126 (GenBank Accession No. AAY39893.1), 127 (GenBank Accession No. ABA81135.1), and 128 (GenBank Accession No. AEA39183.1), respectively such that N-terminal HIS tagged aminotransferases could be produced. Each of the resulting modified genes was cloned into a pET21a expression vector under control of the T7 promoter and each expression vector was transformed into a BL21 [DE3] E. coli host. The resulting recombinant E. coli strains were cultivated at 37° C. in a 250 mL shake flask culture containing 50 mL LB media and antibiotic selection pressure, with shaking at 230 rpm. Each culture was induced overnight at 16° C. using 1 mM IPTG.
The pellet from each induced shake flask culture was harvested via centrifugation. Each pellet was resuspended and lysed via sonication. […]
Enzyme activity in the forward direction (i.e., 7-oxoheptanoate to 7-aminoheptanoate) was confirmed for the aminotransferases of SEQ ID NO: 126 (GenBank Accession No. AAY39893.1), SEQ ID NO: 127 (GenBank Accession No. ABA81135.1), and SEQ ID NO: 128 (GenBank Accession No. AEA39183.1). […] The formation of pyruvate was quantified via RP-HPLC.

Test [5] is described as follows: Aminotransferase activity, reverse direction (7-aminoheptanoate to 7-oxoheptanoate), L-alanine formation by RP-HPLC. To be noted: cell free extract, 10 mM substrate, 25° C., 4 h, against empty vector control, FIG. 48. As for the experimental part:
as §2, §1
Enzyme activity assays in the reverse direction (i.e., 7-aminoheptanoate to 7-oxoheptanoate) were performed in a buffer composed of a final concentration of 50 mM HEPES buffer (pH=7.5), 10 mM 7-aminoheptanoate, 10 mM pyruvate and 100 μM pyridoxyl 5′ phosphate. Each enzyme activity assay reaction was initiated by adding cell free extract of the aminotransferase gene product or the empty vector control to the assay buffer containing the 7-aminoheptanoate and incubated at 25° C. for 4 h, with shaking at 250 rpm. The formation of L-alanine from pyruvate was quantified via RP-HPLC.

B1: SEQ ID NO: 126: Pseudomonas syringae aminotransferase (protein)
chain: MSANNPQTLEWQALSSEHHLAPFSDYKQLKEKGPRIITRAEGVYLWDSEGNKILDGMSGLWCVAIGYGREELADAASKQMRELPYYNLFFQTAHPPVLELAKAISDIAPEGMNHVFFTGSGSEGNDTMLRMVRHYWALKGQPNKKTIISRVNGYHGSTVAGASLGGMTYMHEQGDLPIPGVVHIPQPYWFGEGGDMTPDEFGIWAAEQLEKKILELGVENVGAFIAEPIQGAGGVIVPPDSYWPKIKEILSRYDILFAADEVICGFGRTSEWFGSDFYGLRPDMMTIAKGLTSGYVPMGGLIVRDEIVAVLNEGGDFNHGFTYSGHPVAAAVALENIRILREEKIVERVRSETAPYLQKRLRELSDHPLVGEVRGVGLLGAIELVKDKTTRERYTDKGAGMICRTFCFDNGLIMRAVGDTMIIAPPLVISFAQIDELVEKARTCLDLTLAVLQG
modifications: Pseudomonas syringae pv. syringae (strain B728a)
notes: Pseudomonas syringae aminotransferase
B1: the “acceptance of N7-acetyl-1,7-diaminoheptane as substrate, forming N7-acetyl-7-aminoheptanal” value in test [1] is “accepted N7-acetyl-1,7-diaminoheptane as a substrate”. Also, in test [2], the “acceptance of heptane-1,7-diamine as substrate, forming 7-aminoheptanal” value is given as “accepted heptane-1,7-diamine as substrate”. Moreover, in test [3], the “acceptance of 7-aminoheptanol as substrate, forming 7-oxoheptanol” value was “accepted 7-aminoheptanol as a substrate”. The “acceptance of 7-oxoheptanoate as substrate, forming 7-aminoheptanoate” value in test [4] is on record as “accepted 7-oxoheptanoate as a substrate”. Besides, in test [5], the “acceptance of 7-aminoheptanoate as substrate” value is “accepted 7-aminoheptanote as substrate”.

B2: SEQ ID NO: 116: Chromobacterium violaceum aminotransferase (protein, listed as Chromobacterium violaceum)
chain: MQKQRTTSQWRELDAAHHLHPFTDTASLNQAGARVMTRGEGVYLWDSEGNKIIDGMAGLWCVNVGYGRKDFAEAARRQMEELPFYNTFFKTTHPAVVELSSLLAEVTPAGFDRVFYTNSGSESVDTMIRMVRRYWDVQGKPEKKTLIGRWNGYHGSTIGGASLGGMKYMHEQGDLPIPGMAHIEQPWWYKHGKDMTPDEFGVVAARWLEEKILEIGADKVAAFVGEPIQGAGGVIVPPATYWPEIERICRKYDVLLVADEVICGFGRTGEWFGHQHFGFQPDLFTAAKGLSSGYLPIGAVFVGKRVAEGLIAGGDFNHGFTYSGHPVCAAVAHANVAALRDEGIVQRVKDDIGPYMQKRWRETFSRFEHVDDVRGVGMVQAFTLVKNKAKRELFPDFGEIGTLCRDIFFRNNLIMRACGDHIVSAPPLVMTRAEVDEMLAVAERCLEEFEQTLKARGLA
modifications: Chromobacterium violaceum (strain ATCC 12472 / DSM 30191 / JCM 1249 / NBRC 12614 / NCIMB 9131 / NCTC 9757)
notes: Chromobacterium violaceum aminotransferase
On to B2, for which the “acceptance of N7-acetyl-1,7-diaminoheptane as substrate, forming N7-acetyl-7-aminoheptanal” value in test [1] was “accepted N7-acetyl-1,7-diaminoheptane as a substrate”. The “acceptance of heptane-1,7-diamine as substrate, forming 7-aminoheptanal” value in test [2] is “accepted heptane-1,7-diamine as substrate”. The “acceptance of 7-aminoheptanol as substrate, forming 7-oxoheptanol” value in test [3] is given as “accepted 7-aminoheptanol as a substrate”. Also, the “acceptance of 7-aminoheptanoate as substrate” value in test [5] is “accepted 7-aminoheptanote as substrate”.
